Test results from patent publication US9260500B2, “Peptide and use thereof” (Takeda Pharmaceutical Company Limited, priority 2009, dated 2016).
Starred links: 1 amine or outer side, 2 acyl side, 3 side chain; linkers in the order of their positions; H or OH if unused. Non-standard residues stand in square brackets, D forms with d. *: point of attachment. Tyr(Me) = O-methyltyrosine, COc1ccc(C[C@H](N[*:1])C(=O)[*:2])cc1; Ser(Me) = methylated serine, COC[C@H](N[*:1])C(=O)[*:2]; Phe(2-Me) = Cc1ccccc1C[C@H](N)C(=O)O; Ala(cPr) = N[C@@H](CC1CC1)C(=O)O; tBuAla = CC(C)(C)C[C@H](N)C(=O)O; 4Pal = N[C@@H](Cc1ccncc1)C(=O)O; Cha = N[C@@H](CC1CCCCC1)C(=O)O; Cit = NC(=O)NCCC[C@H](N)C(=O)O; Aipe = 3-aminobutanoic acid; Isobutyryl = CC(C)C(=O)*; Iva = CC[C@](C)(N)C(=O)O; dAze = O=C(O)[C@H]1CCN1; Abu = CC[C@H](N)C(=O)O; Aib = CC(C)(N)C(=O)O; Bz = O=C(c1ccccc1)*; GABA = NCCCC(=O)O

Key:
[1] = target: T1, human Y2 receptor (Homo sapiens, UniProt P49146); experiment: Receptor Binding Assay (RBA) for Human Y2, [125I]-PYY displacement on hY2R/CHO membrane fraction; conditions: IC50 of test compound/IC50 of PYY(3-36) (PYY(3-36) taken as 1)
T1 construct: expressed in transfected cells; membrane fraction
T1 sequence (P49146 1-381): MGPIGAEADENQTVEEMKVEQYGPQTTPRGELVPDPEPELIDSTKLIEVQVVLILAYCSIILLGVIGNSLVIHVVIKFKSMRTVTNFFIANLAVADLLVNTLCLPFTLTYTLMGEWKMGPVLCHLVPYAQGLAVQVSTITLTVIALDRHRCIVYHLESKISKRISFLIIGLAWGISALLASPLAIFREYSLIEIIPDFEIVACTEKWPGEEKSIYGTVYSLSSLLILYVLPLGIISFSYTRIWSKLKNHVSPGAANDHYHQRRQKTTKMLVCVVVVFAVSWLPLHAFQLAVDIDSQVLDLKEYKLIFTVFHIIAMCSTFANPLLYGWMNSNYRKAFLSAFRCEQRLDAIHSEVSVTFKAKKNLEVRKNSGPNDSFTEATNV
Outline: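 Read-out is [125I]-PYY displacement from membranes of CHO/dhfr− cells stably transfected with human Y2R. Membranes were obtained by disrupting cells in a buffer of 10 mM NaHCO3, 5 mM EDTA and protease inhibitors.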

[2] = target: T1, human Y2 receptor; experiment: Human Y2 Receptor G Protein Binding Assay (GBA), [35S]GTPγS; type: biochemical; conditions: EC50 of test compound/EC50 of PYY(3-36) (PYY3-36 taken as 1), hY2R/CHO membrane fraction
Outline: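 Agonism measured as [35S]GTPγS binding, read by GF/C filtration and scintillation counting after 120 min at room temperature, using human Y2 membranes at 1 μg protein/mL in pH 7.4 Tris/MgCl2/NaCl/GDP buffer. Compound serially diluted 100 μM–1 nM; EC50 normalized to PYY(3-36) (ratio = compound/PYY).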

Substance	RBA IC50 Ratio [1]	GBA EC50 Ratio [2]
Ac-[D-Pro24, Pya(4)26, Cha27,36, Aib28,31, Lys(Ac)30]-PYY(23-36) [compound No. 278]	0.97	1.1
Ac-[D-Aze(2)24, Cha27,28,36, Aib31]-PYY(23-36) (Ac-S[dAze]RH[Cha][Cha]NL[Aib]TRQR[Cha]-NH2; SMILES CC(=O)N[C@@H](CO)C(=O)N1CC[C@@H]1C(=O)N[C@@H](CCCNC(=N)N)C(=O)N[C@@H](Cc1c[nH]cn1)C(=O)N[C@@H](CC1CCCCC1)C(=O)N[C@@H](CC1CCCCC1)C(=O)N[C@@H](CC(N)=O)C(=O)N[C@@H](CC(C)C)C(=O)NC(C)(C)C(=O)N[C@H](C(=O)N[C@@H](CCCNC(=N)N)C(=O)N[C@@H](CCC(N)=O)C(=O)N[C@@H](CCCNC(=N)N)C(=O)N[C@@H](CC1CCCCC1)C(N)=O)[C@@H](C)O) [compound No. 153]	1.7	1.3
Ac-[Aipe24, Pya(4)26, Cha27,36, Aib28,31, Lys30]-PYY(23-36) (Ac-S[Aipe]R[4Pal][Cha][Aib]NK[Aib]TRQR[Cha]-NH2) [compound No. 243]	1.3	2
Ac-[D-Pro24, Pya(4)26, Cha27, Aib28,31, Lys30, Phe(2Me)36]-PYY(23-36) (Ac-S[dP]R[4Pal][Cha][Aib]NK[Aib]TRQR[Phe(2-Me)]-NH2; SMILES CC(=O)N[C@@H](CO)C(=O)N1CCC[C@@H]1C(=O)N[C@@H](CCCNC(=N)N)C(=O)N[C@@H](Cc1ccncc1)C(=O)N[C@@H](CC1CCCCC1)C(=O)NC(C)(C)C(=O)N[C@@H](CC(N)=O)C(=O)N[C@@H](CCCCN)C(=O)NC(C)(C)C(=O)N[C@H](C(=O)N[C@@H](CCCNC(=N)N)C(=O)N[C@@H](CCC(N)=O)C(=O)N[C@@H](CCCNC(=N)N)C(=O)N[C@@H](Cc1ccccc1C)C(N)=O)[C@@H](C)O) [compound No. 257]	1.0	0.98
Ac-[D-Pro24, Tyr(Me)26, Cha27,36, Aib28,31, Lys30]-PYY(23-36) (Ac-S[dP]R[Tyr(Me)][Cha][Aib]NK[Aib]TRQR[Cha]-NH2; SMILES COc1ccc(C[C@H](NC(=O)[C@H](CCCNC(=N)N)NC(=O)[C@H]2CCCN2C(=O)[C@H](CO)NC(C)=O)C(=O)N[C@@H](CC2CCCCC2)C(=O)NC(C)(C)C(=O)N[C@@H](CC(N)=O)C(=O)N[C@@H](CCCCN)C(=O)NC(C)(C)C(=O)N[C@H](C(=O)N[C@@H](CCCNC(=N)N)C(=O)N[C@@H](CCC(N)=O)C(=O)N[C@@H](CCCNC(=N)N)C(=O)N[C@@H](CC2CCCCC2)C(N)=O)[C@@H](C)O)cc1) [compound No. 348]	0.88	1.4
Ac-[GABA24, Cha27,28,36, Aib31]-PYY(23-36) (Ac-S[GABA]RH[Cha][Cha]NL[Aib]TRQR[Cha]-NH2; SMILES CC(=O)N[C@@H](CO)C(=O)NCCCC(=O)N[C@@H](CCCNC(=N)N)C(=O)N[C@@H](Cc1c[nH]cn1)C(=O)N[C@@H](CC1CCCCC1)C(=O)N[C@@H](CC1CCCCC1)C(=O)N[C@@H](CC(N)=O)C(=O)N[C@@H](CC(C)C)C(=O)NC(C)(C)C(=O)N[C@H](C(=O)N[C@@H](CCCNC(=N)N)C(=O)N[C@@H](CCC(N)=O)C(=O)N[C@@H](CCCNC(=N)N)C(=O)N[C@@H](CC1CCCCC1)C(N)=O)[C@@H](C)O) [compound No. 156]	5.8	3.0

Continued, values first:

RBA IC50 Ratio [1]	GBA EC50 Ratio [2]	Substance
0.43	0.88	Isobutanoyl-[Glu23, D-Pro24, Pya(4)26, Cha27,36, Leu(Me)28, Lys30, Aib31]-PYY(23-36) (Isobutyryl-E[dP]R[4Pal][Cha][tBuAla]NK[Aib]TRQR[Cha]-NH2; SMILES CC(C)C(=O)N[C@@H](CCC(=O)O)C(=O)N1CCC[C@@H]1C(=O)N[C@@H](CCCNC(=N)N)C(=O)N[C@@H](Cc1ccncc1)C(=O)N[C@@H](CC1CCCCC1)C(=O)N[C@@H](CC(C)(C)C)C(=O)N[C@@H](CC(N)=O)C(=O)N[C@@H](CCCCN)C(=O)NC(C)(C)C(=O)N[C@H](C(=O)N[C@@H](CCCNC(=N)N)C(=O)N[C@@H](CCC(N)=O)C(=O)N[C@@H](CCCNC(=N)N)C(=O)N[C@@H](CC1CCCCC1)C(N)=O)[C@@H](C)O) [compound No. 170]
5.6	4.3	Benzoyl-[His27, Cha28,36, Aib31]-PYY(25-36) (Bz-RHH[Cha]NL[Aib]TRQR[Cha]-NH2; SMILES CC(C)C[C@H](NC(=O)[C@H](CC(N)=O)NC(=O)[C@H](CC1CCCCC1)NC(=O)[C@H](Cc1c[nH]cn1)NC(=O)[C@H](Cc1c[nH]cn1)NC(=O)[C@H](CCCNC(=N)N)NC(=O)c1ccccc1)C(=O)NC(C)(C)C(=O)N[C@H](C(=O)N[C@@H](CCCNC(=N)N)C(=O)N[C@@H](CCC(N)=O)C(=O)N[C@@H](CCCNC(=N)N)C(=O)N[C@@H](CC1CCCCC1)C(N)=O)[C@@H](C)O) [compound No. 104]
0.31	1	Ac-[D-Pro24, Pya(4)26, Cha27,36, Iva28,31, Lys30]-PYY(23-36) (Ac-S[dP]R[4Pal][Cha][Iva]NK[Iva]TRQR[Cha]-NH2; SMILES CC[C@](C)(NC(=O)[C@H](CC1CCCCC1)NC(=O)[C@H](Cc1ccncc1)NC(=O)[C@H](CCCNC(=N)N)NC(=O)[C@H]1CCCN1C(=O)[C@H](CO)NC(C)=O)C(=O)N[C@@H](CC(N)=O)C(=O)N[C@@H](CCCCN)C(=O)N[C@@](C)(CC)C(=O)N[C@H](C(=O)N[C@@H](CCCNC(=N)N)C(=O)N[C@@H](CCC(N)=O)C(=O)N[C@@H](CCCNC(=N)N)C(=O)N[C@@H](CC1CCCCC1)C(N)=O)[C@@H](C)O) [compound No. 246]
4.6	1.3	Ac-[Glu23, D-Pro24, Pya(4)26, Cha27,28,36, Aib31]-PYY(23-36) (Ac-E[dP]R[4Pal][Cha][Cha]NL[Aib]TRQR[Cha]-NH2; SMILES CC(=O)N[C@@H](CCC(=O)O)C(=O)N1CCC[C@@H]1C(=O)N[C@@H](CCCNC(=N)N)C(=O)N[C@@H](Cc1ccncc1)C(=O)N[C@@H](CC1CCCCC1)C(=O)N[C@@H](CC1CCCCC1)C(=O)N[C@@H](CC(N)=O)C(=O)N[C@@H](CC(C)C)C(=O)NC(C)(C)C(=O)N[C@H](C(=O)N[C@@H](CCCNC(=N)N)C(=O)N[C@@H](CCC(N)=O)C(=O)N[C@@H](CCCNC(=N)N)C(=O)N[C@@H](CC1CCCCC1)C(N)=O)[C@@H](C)O) [compound No. 141]
0.88	0.78	Ac-[Arg23, D-Pro24, Iva25, Pya(4)26, Cha27,36, Aib28,31, Lys30]-PYY(23-36) (Ac-R[dP][Iva][4Pal][Cha][Aib]NK[Aib]TRQR[Cha]-NH2; SMILES CC[C@](C)(NC(=O)[C@H]1CCCN1C(=O)[C@H](CCCNC(=N)N)NC(C)=O)C(=O)N[C@@H](Cc1ccncc1)C(=O)N[C@@H](CC1CCCCC1)C(=O)NC(C)(C)C(=O)N[C@@H](CC(N)=O)C(=O)N[C@@H](CCCCN)C(=O)NC(C)(C)C(=O)N[C@H](C(=O)N[C@@H](CCCNC(=N)N)C(=O)N[C@@H](CCC(N)=O)C(=O)N[C@@H](CCCNC(=N)N)C(=O)N[C@@H](CC1CCCCC1)C(N)=O)[C@@H](C)O) [compound No. 321]
5.2	3.8	Ac-[Ser(Me)23, D-Pro24, Abu26, Cha27,28,36, Aib31]-PYY(23-36) (Ac-[Ser(Me)][dP]R[Abu][Cha][Cha]NL[Aib]TRQR[Cha]-NH2; SMILES CC[C@H](NC(=O)[C@H](CCCNC(=N)N)NC(=O)[C@H]1CCCN1C(=O)[C@H](COC)NC(C)=O)C(=O)N[C@@H](CC1CCCCC1)C(=O)N[C@@H](CC1CCCCC1)C(=O)N[C@@H](CC(N)=O)C(=O)N[C@@H](CC(C)C)C(=O)NC(C)(C)C(=O)N[C@H](C(=O)N[C@@H](CCCNC(=N)N)C(=O)N[C@@H](CCC(N)=O)C(=O)N[C@@H](CCCNC(=N)N)C(=O)N[C@@H](CC1CCCCC1)C(N)=O)[C@@H](C)O) [compound No. 106]
5.5	1.7	Ac-[D-Pro24, Cit26, Cha27,28,36, Aib31]-PYY(23-36) (Ac-S[dP]R[Cit][Cha][Cha]NL[Aib]TRQR[Cha]-NH2; SMILES CC(=O)N[C@@H](CO)C(=O)N1CCC[C@@H]1C(=O)N[C@@H](CCCNC(=N)N)C(=O)N[C@@H](CCCNC(N)=O)C(=O)N[C@@H](CC1CCCCC1)C(=O)N[C@@H](CC1CCCCC1)C(=O)N[C@@H](CC(N)=O)C(=O)N[C@@H](CC(C)C)C(=O)NC(C)(C)C(=O)N[C@H](C(=O)N[C@@H](CCCNC(=N)N)C(=O)N[C@@H](CCC(N)=O)C(=O)N[C@@H](CCCNC(=N)N)C(=O)N[C@@H](CC1CCCCC1)C(N)=O)[C@@H](C)O) [compound No. 152]
17	12	Isobutanoyl-[Abu26, Cha27,28,36, Ala(cPr)30, Aib31]-PYY(25-36) (Isobutyryl-R[Abu][Cha][Cha]N[Ala(cPr)][Aib]TRQR[Cha]-NH2; SMILES CC[C@H](NC(=O)[C@H](CCCNC(=N)N)NC(=O)C(C)C)C(=O)N[C@@H](CC1CCCCC1)C(=O)N[C@@H](CC1CCCCC1)C(=O)N[C@@H](CC(N)=O)C(=O)N[C@@H](CC1CC1)C(=O)NC(C)(C)C(=O)N[C@H](C(=O)N[C@@H](CCCNC(=N)N)C(=O)N[C@@H](CCC(N)=O)C(=O)N[C@@H](CCCNC(=N)N)C(=O)N[C@@H](CC1CCCCC1)C(N)=O)[C@@H](C)O) [compound No. 80]
